Measurements as given in paper PMC7660097, “Structural Insights into the Interactions of Candidal Enolase with Human Vitronectin, Fibronectin and Plasminogen” (International Journal of Molecular Sciences, 2020).

B1: C. albicans cytosolic enolase (enzyme, UniProt P30575 1-440, looked up)
chain: MSYATKIHARYVYDSRGNPTVEVDFTTDKGLFRSIVPSGASTGVHEALELRDGDKSKWLGKGVLKAVANVNDIIAPALIKAKIDVVDQAKIDEFLLSLDGTPNKSKLGANAILGVSLAAANAAAAAQGIPLYKHIANISNAKKGKFVLPVPFQNVLNGGSHAGGALAFQEFMIAPTGVSTFSEALRIGSEVYHNLKSLTKKKYGQSAGNVGDEGGVAPDIKTPKEALDLIMDAIDKAGYKGKVGIAMDVASSEFYKDGKYDLDFKNPESDPSKWLSGPQLADLYEQLISEYPIVSIEDPFAEDDWDAWVHFFERVGDKIQIVGDDLTVTNPTRIKTAIEKKAANALLLKVNQIGTLTESIQAANDSYAAGWGVMVSHRSGETEDTFIADLSVGLRSGQIKTGAPARSERLAKLNQILRIEEELGSEAIYAGKDFQKASQL
modifications: biotin (biotin-labeled enolase) in the microplate assays
notes: Enolase of Candida albicans (strain ATCC 10231), cytosolic form; identified by LC-MS/MS; also called C. albicans enolase, cytosol; source: purified from C. albicans ATCC 10231 cytosol (ammonium sulphate fractionation, MonoQ, MonoS)
B2: human vitronectin (natural protein)
chain: DQESCKGRCTEGFNVDKKCQCDELCSYYQSCCTDYTAECKPQVTRGDVFTMPEDEYTVYDDGEEKNNATVHEQVGGPSLTSDLQAQSKGNPEQTPVLKPEEEAPAPEVGASKPEGIDSRPETLHPGRPQPPAEEELCSGKPFDAFTDLKNGSLFAFRGQYCYELDEKAVRPGYPKLIRDVWGIEGPIDAAFTRINCQGKTYLFKGSQYWRFEDGVLDPDYPRNISDGFDGIPDNVDAALALPAHSYSGRERVYFFKGKQYWEYQFQHQPSQEECEGSSLSAVFEHFAMMQRDSWEDIFELLFWGRTSAGTRQPQFISRDWHGVPGQVDAAMAGRIYISGMAPRPSLAKKQRFRHRNRKGYRSQRGHSRGRNQNSRRPSRATWLSLFSSEESNLGANNYDDYRMDWLVPATCEPIQSVFFFSGDKYYRVNLRTRRVDTVDPPYPRSIAQYWLGCPAPGHL
modifications: biotin (NHS-biotin) in the cell-binding assays of Figure 1; sulfo-SDAD on amino groups in the cross-linking
notes: Vitronectin, human; also called VTR; VTR-Bt; source: bought: R&D Systems
B3: C. tropicalis cytosolic enolase (enzyme, UniProt C5MD83 1-440, looked up)
chain: MSYATKIHARTVYDSRGNPTVEVELTTDNGMFRSIVPSGASTGIHEALELRDGDKSKWLGKGVLKAVSNVNDIIAPALIDAKIDVNDQSKIDEFMIKLDGTPNKSKLGANAILGVSLAAANAAAANQGIPLYQHIANLSKSKKDKYVLPVPFQNVLNGGAHAGGDLAFQEFMIVPTGAESFSEAMRIDSEVYHTLKSLAKKKYGQSAGNVGDEGGVAPDLRTPEEALDLIVESIEQAGHTGKVKIAMDPASSEFFKDGKYDLDFKNPNPDPAKRLSGKELAELYERLINKYPIVLLEDPFAEDDWDAWVHFFKIVGDKVQIVADDLTVTNPIRIKKAIEKKCANALLVKVNQIGTLSESIVAANDAFGAGWGVMVSHRSGETEDTFIADLVVGLRAGQIKTGAPARSERLAKLNQILRIEESLGDDAIYAGKNFAVAHQL
modifications: biotin (biotin-labeled enolase) in the microplate assays
notes: Enolase of Candida tropicalis (strain T1, ATCC MYA-3404), cytosolic form; identified by LC-MS/MS; also called C. tropicalis enolase, cytosol; source: purified from C. tropicalis T1 (ATCC MYA-3404) cytosol (ammonium sulphate fractionation, MonoQ, MonoS)

Legend:
human vitronectin = molecular target: B2; test: SPR; BIACORE 3000; enolase amine-coupled to a CM5 chip (about 300 RU); human protein as analyte (40-750 nM or 75-750 nM), 30 µL/min, 25 °C, 10 mM HEPES, 150 mM NaCl, 0.005% P20, pH 7.4; 1:1 Langmuir global fit with baseline drift and local Rmax; regeneration 1 M NaCl; settings: both partners purified
[1] = molecular target: T1, C. albicans cell surface-exposed enolase (C. albicans, UniProt P30575 1-440, biotin (biotin-labeled enolase) in the microplate ligand-binding assay); test: as above; settings: both partners purified
T1 construct: Enolase of Candida albicans (strain ATCC 10231), form exposed at the cell surface; identified by LC-MS/MS, non-glycosylated, 47 kDa; Same protein as m2, isolated from another compartment; also called C. albicans enolase, cell wall; cell wall-associated enolase

Row | Binder | Kd (human vitronectin) | koff (human vitronectin) | kon (human vitronectin) | Kd [1] | koff [1] | kon [1]
1 | B1 | 55.3 nM | 0.00493 s⁻¹ | 89100 M⁻¹ s⁻¹ |  |  | 
2 | B2 |  |  |  | 31.1 nM | 0.00417 s⁻¹ | 134000 M⁻¹ s⁻¹
3 | B3 | 683 nM | 0.00915 s⁻¹ | 13400 M⁻¹ s⁻¹ |  |  | 
